Measured values from patent US20170066831A1 (Janssen / Centocor, published 2017).

Legend:
[1] = target: T1, HH-ST2L variant 93NL94 (substitution 93TF94 to 93NL94) (human, UniProt Q01638 19-205); assay: ProteOn SPR, mAb captured by anti-Fc, ST2L-D1D2 variant injected
T1 chain: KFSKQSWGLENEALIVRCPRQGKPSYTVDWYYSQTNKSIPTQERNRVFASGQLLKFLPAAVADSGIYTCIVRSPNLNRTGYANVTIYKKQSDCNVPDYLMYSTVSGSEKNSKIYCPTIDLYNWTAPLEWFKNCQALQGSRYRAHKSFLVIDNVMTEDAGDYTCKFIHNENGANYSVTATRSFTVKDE
Protocol: (§1) Binding studies were performed using the ProteOn XPR36 Protein Interaction Array system (Bio-Rad) (Bravman T, et al. Anal Biochem 358:281-288, 2006). […] Individual anti-ST2L mAb was then captured by flowing (1 μg/mL) antibody solution prepared in PBS containing 0.5% Nonidet P-40 and 0.5% Na-deoxycholate). The signal in the surfaces reached ˜250 resonance units (RU, 1 RU=1 pg protein/mm²) in the anti-Fc-coated surfaces, confirming that these antibodies specifically capture anti-ST2L mAbs. After 90° rotation of the fluid system, wild type of ST2L-D1D2 or variant proteins (0.5 mg/mL in PBS containing 0.5% Nonidet P-40 and 0.5% Na-deoxycholate) was injected in the parallel flow channels. All of these assays were performed at 25° C. The ST2L-D1D2-dependent signals on the surfaces were obtained by double referencing, subtracting the response observed on surfaces immobilizing the antibodies alone, and the signal observed injecting the vehicle alone (which allows correction for binding-independent responses). The resulting sensorgrams were fitted by the simplest 1:1 interaction model (ProteOn analysis software), to obtain the corresponding association and dissociation rate constants (kₐ and kd).
Residue numbering is according to full length human ST2L of SEQ ID NO: 1.

[2] = target: T2, 108QSD110-->PPS; assay: SPR, ProteOn XPR36, 25 C; mAb captured on anti-Fc surface, ST2L-D1D2 (HH-ST2L) variant injected; 1:1 model
T2 receptor fragment (Domains I and II): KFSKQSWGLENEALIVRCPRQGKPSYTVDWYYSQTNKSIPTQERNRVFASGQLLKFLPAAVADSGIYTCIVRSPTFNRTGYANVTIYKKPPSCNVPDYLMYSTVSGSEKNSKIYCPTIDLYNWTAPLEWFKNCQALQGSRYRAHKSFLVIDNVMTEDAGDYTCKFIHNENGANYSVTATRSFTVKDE
Protocol: as §1

[3] = target: T1, HH-ST2L variant 93NL94 (substitution …); assay: as above
Protocol: as §1

[4] = target: T3, A78R; assay: as above
T3 construct: also called HH-ST2L (ST2L-D1D2) variant A78R
T3 receptor fragment (Domains I and II): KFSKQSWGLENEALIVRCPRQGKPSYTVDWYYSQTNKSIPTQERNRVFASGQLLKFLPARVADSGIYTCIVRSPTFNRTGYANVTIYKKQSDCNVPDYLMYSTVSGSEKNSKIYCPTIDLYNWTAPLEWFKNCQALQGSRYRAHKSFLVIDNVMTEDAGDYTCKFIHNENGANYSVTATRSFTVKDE
Protocol: as §1

Kd [1]: ~0.0495 nM | fold reduction of binding affinity against wild type ST2L-D1D2 [1]: ~5 fold | Kd [2]: 0.01 nM | koff [2]: 0.000119 s⁻¹ | kon [2]: 1.28e+07 M⁻¹ s⁻¹ | koff [3]: 0.000625 s⁻¹ | kon [3]: 1.27e+07 M⁻¹ s⁻¹ | Kd [4]: 0.0104 nM | koff [4]: 0.00013 s⁻¹ | kon [4]: 1.24e+07 M⁻¹ s⁻¹
B1: STLM208 (antibody, V domains shown)
VH: EVQLLESGGGLVQPGGSLRLSCAASGFTFSIYDMIWVRQAPGKGLEWVSSIRGEGGGTYYADSVKGRFTISRDNSKNTLYLQMNSLRAEDTAVYYCARDPWSTEGSFFVLDYWGQGTLVTVSS
VL: EIVLTQSPATLSLSPGERATLSCRASQSVDDDLAWYQQKPGQAPRLLIYDASNRATGIPARFSGSGSGTDFTLTISSLEPEDFAVYYCQQYITAPLTFGQGTKVEIK
notes: frameworks VH3-23 / Vk-L6
